Data taken from the RNAGym collection of RNA variant scans (doi:10.1073/pnas.2313332121).

B1: TPR t1 (parent)
chain: GACCAAUCUGCCCUCAGAGCUCGAGAACAUCUUCGGAUGCAGAGGAGGCAGGCUUCGGUGGCGCGAUAGCGCCAACGUCCUCAACCUCCAAUGCAUCCCACCACAUGAUGAUGCCUGAAGAGCCUUGGUUUUUUG

Variants of: B1
Test: polymerase ribozyme fitness, log enrichment relative to wild type (log ratio); higher = more active; in vitro selection for triplet polymerase activity
Summary of the method: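 The heterodimeric triplet polymerase ribozyme's subunits were each mutagenized into PCR-built libraries and transcribed. Every library was selected once, in triplicate, by annealing with a biotinylated primer, the partner subunit and triplets, incubating frozen at −7 °C, gel-excising extended constructs, capturing on streptavidin beads and running RT-PCR. Input and output libraries were Illumina-sequenced, with genotypes kept only at ≥10 input reads and ≥1 read per output. Fitness, from inverse-variance-weighted replicate averages, is the base-2 logarithm of genotype enrichment over wild-type enrichment.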

Row | Variant | polymerase ribozyme fitness (log ratio)
1 | G69U C76U G93C U132C | -2.06
2 | A68U C97A G120C | -6.59
3 | G69U C98U | 0.082
4 | G71U C99U G120U | -4.26
5 | G71U C80A | -5.28
6 | C70A U126A | -2.53
7 | G69U G128A | -1.19
8 | C70A C123A | -0.557
9 | C70U C73A C102U A118U | -2.08
10 | C70U G117U A118U U130C | -3.8
11 | C70G C124U U130C | -0.523
12 | C70U G128U U133G | -2.39
13 | G69A G110C U129A | -7.59
14 | G71U C89U C101U C123U G128C | -1.14
15 | G71A C72G C114U | -4.69
16 | G71C C104A | -3.63
17 | G71C A75G | -0.0431
18 | G69C U78C A84C | -2.73
19 | G69U A100U | -0.417
20 | G69U U96G | -0.302
21 | U67A C123U | -5.81

Row | Variant | polymerase ribozyme fitness (log ratio)
22 | C70G A111U | -5.55
23 | C70G A111C | -3.24
24 | G71A C73U | -2.15
25 | G71A A111C | -0.4
26 | G69A U78G A118U | -1.62
27 | G71A C89G | -2.03
28 | G71U A84C | -0.343
29 | C70G G127U | -3.25
30 | C70U U96G | -1.09
31 | G71C U133A | -0.636
32 | C70U C80U U96A U106C | -4.08
33 | G71C G110A | -2.2
34 | C70U C85A | -2.12
35 | C70U C85U | -0.917
36 | G71U C102U | -1.69
37 | C70G C98U | -2.99
38 | C70U C80U | -0.851
39 | G69C C114U | -1.95
40 | G71A A84C | -0.48
41 | G69U C104U | 0.349
42 | G71C U81C U129C U130A | -3.37

Row | Variant | polymerase ribozyme fitness (log ratio)
43 | G69U A119G | 1.7
44 | G69U U81G U116C | -1.49
45 | A68G C82U | -2.87
46 | C70G C94A | -3.62
47 | C70U C72U A95C A111U | -5.58
48 | G71A U96A U116A | -3.94
49 | G71U G113C C114U G128A | -3.3
50 | G69U U78A A83C C102G | -3.71
51 | G71A C102A | -2.99
52 | G69U C104G U133G | -5.17
53 | C70U C94A | -1.13
54 | C70U C94G | -0.729
55 | C70U C104U U130G | -0.752
56 | G71C U78G | -3.19
57 | C70U A91C C101U U112A U129C | -6.24
58 | G71A G120U | 0.349
59 | G71C C94A | -4.08
60 | G71A G120C G122A | -1.43
61 | G71U C99U U129A | -5.39
62 | G69U C82U | -0.267
63 | G69U C82G | -1.46

Row | Variant | polymerase ribozyme fitness (log ratio)
64 | G71U G120C | 0.378
65 | G71U G128U | -2.61
66 | G71A A105U | -3.04
67 | G71A U92A A121U | -2.31
68 | C70G U130G | -4.08
69 | G69U C114A | -0.78
70 | G69C G71U C97A A108C U109A | -5.19
71 | C70A U78C C102U | -4.3
72 | U67A G69U | -5.08
73 | G71A U130C | 0.53
74 | G71U A74U A95U U112G | -3.05
75 | G69C C88A | -2.15
76 | C70G C104U | -3.03
77 | C70U C72G C115U G117A | -5.53
78 | C70U U112A | 0.732
79 | C70U G77C | -1.78
80 | G69U C73G A105U | -4.07
81 | G71A A91C C114U U133C | -2.15
82 | C70U A103U G120C U131C | -5.74
83 | G69A C73G G120U | -5.64
